Substitutions are numbered along the chain they refer to.
T1: human CD73 expressed at the cell surface (human, UniProt P21589 27-549)
T1 sequence: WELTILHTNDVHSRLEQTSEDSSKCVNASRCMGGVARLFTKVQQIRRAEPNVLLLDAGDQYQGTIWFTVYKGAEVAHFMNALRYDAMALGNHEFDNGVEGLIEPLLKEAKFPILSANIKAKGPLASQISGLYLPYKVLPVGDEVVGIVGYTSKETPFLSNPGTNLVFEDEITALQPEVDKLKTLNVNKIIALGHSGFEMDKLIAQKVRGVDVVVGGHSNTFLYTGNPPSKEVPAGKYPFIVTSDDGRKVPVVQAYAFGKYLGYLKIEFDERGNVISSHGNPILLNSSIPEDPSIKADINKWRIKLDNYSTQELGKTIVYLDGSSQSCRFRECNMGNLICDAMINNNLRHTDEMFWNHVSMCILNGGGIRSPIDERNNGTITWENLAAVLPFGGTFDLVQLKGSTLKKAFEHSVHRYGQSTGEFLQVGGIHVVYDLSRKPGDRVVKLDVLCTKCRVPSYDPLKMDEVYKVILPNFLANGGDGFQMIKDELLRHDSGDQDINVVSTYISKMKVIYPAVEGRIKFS

T2: recombinant human CD73-His extracellular domain recombinant protein (soluble dimer) (human, UniProt P21589 27-547, limits assumed)
T2 sequence: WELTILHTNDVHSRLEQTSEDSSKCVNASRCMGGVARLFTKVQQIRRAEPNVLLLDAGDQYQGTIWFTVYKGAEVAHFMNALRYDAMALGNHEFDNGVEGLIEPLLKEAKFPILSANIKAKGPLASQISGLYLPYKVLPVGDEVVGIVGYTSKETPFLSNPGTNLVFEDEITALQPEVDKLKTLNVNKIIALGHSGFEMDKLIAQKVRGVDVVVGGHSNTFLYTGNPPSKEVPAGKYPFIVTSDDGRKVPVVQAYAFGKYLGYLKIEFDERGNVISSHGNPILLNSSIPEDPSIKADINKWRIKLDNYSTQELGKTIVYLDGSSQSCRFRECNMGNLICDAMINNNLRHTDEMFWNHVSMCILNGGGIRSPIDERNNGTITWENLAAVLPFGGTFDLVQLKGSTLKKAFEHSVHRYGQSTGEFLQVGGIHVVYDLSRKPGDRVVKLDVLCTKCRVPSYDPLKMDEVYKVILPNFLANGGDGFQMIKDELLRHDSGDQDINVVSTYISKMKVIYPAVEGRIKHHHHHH

B1: antibody 11E1 (antibody, V domains shown)
VH: EIQLQQSGPELVKPGASVKVSCKASGYAFTSYNMYWVKQSHGKSLEWIGYIDPYNGGTSYNQKFKGKATLTVDKSSSTAYMHLNSLTSEDSAVYYCARGYGNYKAWFAYWGQGTLVTVSA
VL: DAVMTQTPKFLLVSAGDRVTITCKASQSVTNDVAWYQQKPGQSPKLLIYYASNRYTGVPDRFTGSGYGTDFTFTISTVQAEDLAVYFCQQDYSSLTFGAGTKLELK
B2: antibody 8C7 (antibody, V domains shown)
VH: B1 VH with I2V, T30A, Y35N, E46D, T58S, Q62L, K63T, S77T
VL: SIVMTPTPKFLLVSAGDRVTITCKASQSVSNDVAWYQQKPGQSPKLLIYYASTRYTGVPDRFTGSGYGTDFTFTISTVQAEDLAVYFCQQDYSSLTFGAGTKLELKR
B3: antibody 3C12 (antibody, V domains shown)
VH: B1 VH with E1Q, T30A, Y35N, E46D, T58S, Q62L, K63T, S77T
VL: B2 VL with S1D, I2V, P6Q
B4: antibody 6E1 (antibody, V domains shown)
VH: B1 VH with I2F, S44R, T58S, S85N, G101N
VL: B1 VL with D1S, A2I, V78M

What was measured:
[1] = molecular target: T1, human CD73 expressed at the cell surface; assay: cell-based or functional assay
[2] = molecular target: recombinant human CD73-His extracellular domain recombinant protein (soluble dimer) (human) (UniProt P21589); assay: ELISA, recombinant human CD73 coated at 5 µg/ml, antibody titrated
[3] = molecular target: T1, human CD73 expressed at the cell surface; assay: cell-based or functional assay; remark: listed apart in the source
[4] = molecular target: T2, recombinant human CD73-His …; assay: cell-based or functional assay
[5] = molecular target: T1, human CD73 expressed at the cell surface; assay: cell-based or functional assay; remark: listed apart in the source
[6] = molecular target: T1, human CD73 expressed at the cell surface; assay: cell-based or functional assay; remark: listed apart in the source

Row | Molecule | down-modulation of CD73 expression on MDA-MB-231 cells (10 µg/ml antibody, time course) [1] [%] | EC50 [2] [µg/mL] | decrease of enzymatic activity of cellular CD73 (MDA-MB-231) [3] [%] | EC50 for CD73 blockade (enzymatic activity of soluble recombinant human CD73-his, Cell Titer Glo luciferase read-out) [4] [µg/mL] | EC50 for neutralization of enzymatic activity of cellular CD73 (MDA-MB-231 cells, free phosphate from AMP hydrolysis, Malachite Green) [5] [µg/mL] | EC50 for neutralization of cellular CD73 enzymatic activity, mean over MDA-MB-231, H292 and A375 cells (N=8) [6] [µg/mL] | EC70 for neutralization of cellular CD73 enzymatic activity, mean over MDA-MB-231, H292 and A375 cells (N=8) [6] [µg/mL] | EC100 for neutralization of cellular CD73 enzymatic activity, mean over MDA-MB-231, H292 and A375 cells (N=8) [6] [µg/mL] | EC50 for neutralization of cellular CD73 enzymatic activity, mean over MDA-MB-231, H292 and A375 cells (N=2) [6] [µg/mL]
1 | antibody 7G2 (Life Technologies Corp.) | > 50 | 0.037 | – | – | – | – | – | – | –
2 | B1 | – | – | > 75 | 0.41 | 0.195 | 0.1 | 0.15 | 0.52 | –
3 | B2 | – | – | > 75 | 1.29 | 0.319 | – | – | – | 0.21
4 | B3 | – | – | > 75 | 0.41 | 0.21 | 0.14 | 0.18 | 0.3 | –
5 | B4 | – | – | > 75 | 0.33 | 0.209 | 0.13 | 0.19 | 0.68 | –

— EP3259288B1 (Innate Pharma, dated 2026)
